Source: publication PMC4631118 (Molecular microbiology, 2012)

T1: MBP-A2 (Qβ lysis protein A2 fused to E. coli maltose-binding protein) (bacteriophage Qβ, UniProt Q8LTE2 1-420)
T1 sequence (looked up): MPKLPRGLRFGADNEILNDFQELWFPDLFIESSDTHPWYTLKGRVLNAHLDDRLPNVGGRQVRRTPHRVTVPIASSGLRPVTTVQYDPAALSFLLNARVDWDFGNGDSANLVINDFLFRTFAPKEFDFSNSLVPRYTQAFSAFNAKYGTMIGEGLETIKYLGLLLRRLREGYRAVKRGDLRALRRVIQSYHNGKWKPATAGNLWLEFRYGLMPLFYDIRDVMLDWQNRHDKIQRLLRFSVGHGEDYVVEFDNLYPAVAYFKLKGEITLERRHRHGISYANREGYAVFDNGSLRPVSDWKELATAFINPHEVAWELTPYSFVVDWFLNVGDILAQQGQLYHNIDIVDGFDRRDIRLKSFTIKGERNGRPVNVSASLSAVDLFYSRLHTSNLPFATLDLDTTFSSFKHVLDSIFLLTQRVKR

T2: A2 cleaved from the MBP fusion protein with TEV protease (bacteriophage Qβ, UniProt Q8LTE2 1-420)
T2 sequence (looked up): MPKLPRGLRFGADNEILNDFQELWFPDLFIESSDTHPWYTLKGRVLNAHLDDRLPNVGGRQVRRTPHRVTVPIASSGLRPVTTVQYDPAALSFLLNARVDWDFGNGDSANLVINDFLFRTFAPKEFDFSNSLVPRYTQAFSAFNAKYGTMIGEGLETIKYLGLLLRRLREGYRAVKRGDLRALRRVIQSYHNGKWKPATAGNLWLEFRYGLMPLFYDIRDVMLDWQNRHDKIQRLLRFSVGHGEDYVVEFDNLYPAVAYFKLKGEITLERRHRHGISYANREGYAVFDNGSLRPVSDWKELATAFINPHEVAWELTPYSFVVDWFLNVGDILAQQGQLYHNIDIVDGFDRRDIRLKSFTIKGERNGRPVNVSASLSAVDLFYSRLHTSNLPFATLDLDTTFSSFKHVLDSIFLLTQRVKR


Assays:
[1] = biological target: T1, MBP-A2 (Qβ lysis protein A2 fused to E. …); assay: pull-down
[2] = biological target: T2, A2 cleaved from the MBP fusion protein …; assay: fusion cleavage assay

Binder	binding result [1]	binding result [2]
MurA (E. coli), purified, with C-terminal oligo-histidine tag (enzyme) MDKFRVQGPTKLQGEVTISGAKNAALPILFAALLAEEPVEIQNVPKLKDVDTSMKLLSQLGAKVERNGSVHIDARDVNVFCAPYDLVKTMRASIWALGPLVARFGQGQVSLPGGCTIGARPVDLHISGLEQLGATIKLEEGYVKASVDGRLKGAHIVMDKVSVGATVTIMCAATLAEGTTIIENAAREPEIVDTANFLITLGAKISGQGTDRIVIEGVERLGGGVYRVLPDRIETGTFLVAAAISRGKIICRNAQPDTLDAVLAKLRDAGADIEVGEDWISLDMHGKRPKAVNVRTAPHPAFPTDMQAQFTLLNLVAEGTGFITETVFENRFMHVPELSRMGAHAEIESNTVICHGVEKLSGAQVMATDLRASASLVLAGCIAEGTTVVDRIYHIDRGYERIEDKLRALGANIERVKGE	binds	–
MurA^D305A, purified (enzyme, E. coli) MDKFRVQGPTKLQGEVTISGAKNAALPILFAALLAEEPVEIQNVPKLKDVDTSMKLLSQLGAKVERNGSVHIDARDVNVFCAPYDLVKTMRASIWALGPLVARFGQGQVSLPGGCTIGARPVDLHISGLEQLGATIKLEEGYVKASVDGRLKGAHIVMDKVSVGATVTIMCAATLAEGTTIIENAAREPEIVDTANFLITLGAKISGQGTDRIVIEGVERLGGGVYRVLPDRIETGTFLVAAAISRGKIICRNAQPDTLDAVLAKLRDAGADIEVGEDWISLDMHGKRPKAVNVRTAPHPAFPTAMQAQFTLLNLVAEGTGFITETVFENRFMHVPELSRMGAHAEIESNTVICHGVEKLSGAQVMATDLRASASLVLAGCIAEGTTVVDRIYHIDRGYERIEDKLRALGANIERVKGE	–	binds
